Reference: paper doi:10.1101/452904 (bioRxiv, 2018)

Target: FLAG-Sec23A (human, UniProt Q15436 1-765)
Assay: pull-down

FLAG-Sec23A, sequence (Q15436 whole entry): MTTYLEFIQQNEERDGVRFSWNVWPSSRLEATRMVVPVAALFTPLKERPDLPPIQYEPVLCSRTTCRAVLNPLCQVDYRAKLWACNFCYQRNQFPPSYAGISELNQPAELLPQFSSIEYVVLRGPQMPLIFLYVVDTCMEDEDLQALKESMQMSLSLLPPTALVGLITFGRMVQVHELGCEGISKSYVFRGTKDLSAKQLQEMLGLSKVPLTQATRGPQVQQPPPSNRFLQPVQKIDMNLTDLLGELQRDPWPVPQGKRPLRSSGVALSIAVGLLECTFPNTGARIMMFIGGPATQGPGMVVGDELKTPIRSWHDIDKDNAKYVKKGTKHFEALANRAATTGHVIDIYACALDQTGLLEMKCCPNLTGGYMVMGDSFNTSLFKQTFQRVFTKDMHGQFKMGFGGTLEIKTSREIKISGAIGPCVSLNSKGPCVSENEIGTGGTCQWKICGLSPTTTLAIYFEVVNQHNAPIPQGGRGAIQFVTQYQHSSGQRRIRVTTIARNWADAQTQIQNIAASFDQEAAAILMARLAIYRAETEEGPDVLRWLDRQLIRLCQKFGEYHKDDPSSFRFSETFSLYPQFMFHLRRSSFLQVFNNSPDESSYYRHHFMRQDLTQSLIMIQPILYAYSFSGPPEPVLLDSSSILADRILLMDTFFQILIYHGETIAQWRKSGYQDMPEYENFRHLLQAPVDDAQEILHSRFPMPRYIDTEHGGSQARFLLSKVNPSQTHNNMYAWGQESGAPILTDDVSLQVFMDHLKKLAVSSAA

binding result: binds
B1: GST-tagged TANGO1-PRD (1651–1907 aa)-His6 (domain or fragment)
chain: NTQNPPRRGPLSQNGSFGPSPVSGGECSPPLTVEPPVRPLSATLNRRDMPRSEFGSVDGPLPHPRWSAEASGKPSPSDPGSGTATMMNSSSRGSSPTRVLDEGKVNMAPKGPPPFPGVPLMSTPMGGPVPPPIRYGPPPQLCGPFGPRPLPPPFGPGMRPPLGLREFAPGVPPGRRDLPLHPRGFLPGHAPFRPLGSLGPREYFIPGTRLPPPTHGPQEYPPPPAVRDLLPSGSRDEPPPASQSTSQDCSQALKQSP
